This assay has as its target purified CD26 (dipeptidyl-peptidase IV, EC 3.4.14.5) (human) (UniProt P27487). Kind of assay: cell-based or functional assay.

purified CD26 (dipeptidyl-peptidase IV, EC 3.4.14.5) (human), sequence (P27487 whole entry, form in doubt): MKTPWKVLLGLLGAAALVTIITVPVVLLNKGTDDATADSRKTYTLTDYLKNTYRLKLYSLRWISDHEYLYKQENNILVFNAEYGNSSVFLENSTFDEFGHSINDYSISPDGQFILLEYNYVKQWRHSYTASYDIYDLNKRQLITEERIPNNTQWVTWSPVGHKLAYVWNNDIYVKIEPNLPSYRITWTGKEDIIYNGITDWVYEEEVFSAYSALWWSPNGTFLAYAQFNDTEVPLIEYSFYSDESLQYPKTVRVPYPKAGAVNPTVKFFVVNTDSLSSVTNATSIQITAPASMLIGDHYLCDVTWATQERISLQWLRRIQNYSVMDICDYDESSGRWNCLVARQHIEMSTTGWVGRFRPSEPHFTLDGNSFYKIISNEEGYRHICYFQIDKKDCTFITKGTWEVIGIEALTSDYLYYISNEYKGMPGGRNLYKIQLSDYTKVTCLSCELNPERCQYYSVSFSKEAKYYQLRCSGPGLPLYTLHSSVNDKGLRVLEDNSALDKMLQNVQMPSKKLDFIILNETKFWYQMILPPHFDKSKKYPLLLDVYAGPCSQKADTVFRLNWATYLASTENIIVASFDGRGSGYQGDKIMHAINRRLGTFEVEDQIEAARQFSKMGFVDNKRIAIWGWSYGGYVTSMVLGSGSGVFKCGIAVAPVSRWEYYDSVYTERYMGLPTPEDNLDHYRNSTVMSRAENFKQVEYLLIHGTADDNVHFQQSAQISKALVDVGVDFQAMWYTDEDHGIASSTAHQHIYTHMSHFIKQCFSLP

Turning to Diprotin A (peptide), the inhibition of conversion of 50 µM CAM-405 to CAM-212 by purified CD26, 100 µM diprotin A is greater than 50%.

Values taken from US20070275900A1.
